Where a chain is given by its changes, count along the chain named. In names and notes the source's numbering stands.

14 molecules from patent US20240425587A1 (Alector, published 2024) can be followed below.

B1: A11 (antibody, V domains shown)
VH: QVQLVQSGAEVKKPGASVKVSCKASGYTFTSYYMHWVRQAPGQGLEWMGWINPNNGDTNYAQKFQGRVTMTRDTSTSTVYMELSSLRSEDTAVYYCARAGYFDWLLDYYGMDVWGQGTTVTVSS
VL: DIVMTQSPLSLPVTPGEPASISCRSSQSLLHSNGYNYLDWYLQKPGQSPQLLIYDASNLETGVPDRFSGSGSGTDFTLKISRVEAEDVGVYYCMQALQTPFGPGTKVDIK
notes: phage campaign; same VH/VL as E17
B2: E19 (antibody, V domains shown)
VH: QVQLVQSGAEVKKPGSSVKVSCKASGYLFSDYAMNWVRQAPGQGLEWVGWIIPNSGGTKFAQTFQGRVTITADESTSTAYMELSSLRSEDTAVYYCAREHGVVPADHYYYGMDVWGQGTTVTVSS
VL: EIVMTQSPATLSVSPGERATLSCRASQSISSSYLAWYQQKPGQAPRLLIYGASTRATGIPARFSGSGSGTEFTLTISSLQSEDFAVYYCQQYGRFPWTFGQGTKVEIK
notes: phage campaign; same VH/VL as A13
B3: E10 (antibody, V domains shown)
VH: EVQLLESGGGLVKPGGSLRLSCAASGFTFSNYAMSWVRQAPGKGLEWVAVIYSGADTYYADSVKGRFTISRDDSKNTLYLQMNSLKTEDTAVYYCTRDIGLNYGDYELFDYWGQGTLVTVSS
VL: DIVMTQSPLSLPVTPGEPASISCRSSQSLLHSNGYNYLDWYLQKPGQSPQLLIYDASNLETGVPDRFSGSGSGTDFTLKISRVEAEDVGVYYCMQGLQTPYVFGQGTKLEIK
notes: phage campaign
B4: E8 (antibody, V domains shown)
VH: QVQLVQSGAEVKKPGASVKVSCKASGYAFTNYDINWVRQAPGQGLEWLGWINPYSGDTNYAQKLQGRVTMTRDTSTSTVYMELSSLRSEDTAVYYCTIPSSYGEYYYYYMDVWGKGTTVTVSS
VL: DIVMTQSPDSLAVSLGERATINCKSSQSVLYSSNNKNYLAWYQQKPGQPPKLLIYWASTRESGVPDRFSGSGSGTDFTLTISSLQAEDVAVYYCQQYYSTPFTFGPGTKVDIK
notes: phage campaign
B5: E14 (antibody, V domains shown)
VH: QVQLVQSGAEVKKPGSSVKVSCKASGYTFTNYDINWVRQAPGQGLEWMGGIIPIFGTANYAQKFQGRVTITADESTSTAYMELSSLRSEDTAVYYCTNGVGAGWFDLWGRGTLVTVSS
VL: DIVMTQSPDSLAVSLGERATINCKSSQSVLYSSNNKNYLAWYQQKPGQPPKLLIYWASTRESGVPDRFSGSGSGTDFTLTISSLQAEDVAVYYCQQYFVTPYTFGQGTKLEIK
notes: phage campaign
B6: E9 (antibody, V domains shown)
VH: QVQLVQSGAEVKKPGASVKVSCKASGGTFSSYSINWVRQAPGQGLEWMGWINPHSGATKYAERFQGRVTMTRDTSTSTVYMELSSLRSEDTAVYYCASAEEPYDILTGYYGGDAFDIWGQGTMVTVSS
VL: DIQMTQSPSSLSASVGDRVTITCRASQSISKYLNWYQQKPGKAPKLLIYDASNLQAGVPSRFSGSGSGTDFTLTISSLQPEDFATYYCQQANSFPYTFGQGTKLEIK
notes: phage campaign
B7: E11 (antibody, V domains shown)
VH: QVQLVQSGAEVKKPGSSVKVSCKASGGTFSSYDISWVRQAPGQGLEWMGGIIPTFVTPKYAQKFQGRVTITADESTSTAYMELSSLRSEDTAVYYCAREGPKQLEEYYYYYMDVWGKGTTVTVSS
VL: B6 VL with S26T, S28A, K31N, Y32S, N34A, D50A, N53Y, A56S, N92Y, Y96W
notes: phage campaign
B8: E6 (antibody, V domains shown)
VH: QVQLVQSGAEVKKPGASVKVSCKASGGTFSSYAISWVRQAPGQGLEWMGWINPNSGGTNFAQKFQGRVTMTRDTSTSTVYMELSSLRSEDTAVYYCARGSGSYPLDYWGRGTLVTVSS
VL: B6 VL with S28D, K31T, Y32W, N34A, N53S, Q55E, A56S, A91T, N92Y, F94A
notes: phage campaign
B9: E2 (antibody, V domains shown)
VH: EVQLQESGPSLVKPSQTLSLTCSVTGDSITSGYWNWIRKFPGDKLEYMGYISYTGTTYYNPSLKSRVSITRDTSKNQYYLQLHSVTTEDTATYYCARYPYGNFPFDYWGQGTTLTVSS
VL: SIVMTQTPKFLLVSAGDRVTITCKASQSVRNDVAWYQQRPGQSPKLLIFYASSRYIGAPDRFTGSGYGTDFTFTISTVQAEDLAVYFCQQDYSSPYTFGGGTTLEIK
notes: second hybridoma campaign
B10: E7 (antibody, V domains shown)
VH: EVQLLESGGGLVKPGGSLRLSCAASGFTFSSYWMSWVRQAPGKGLEWVSAISGSGGSTYYADSVKGRFTISRDDSKNTLYLQMNSLKTEDTAVYYCARHEEVTMVRGVIFAGGITNWGQGTTVTVSS
VL: B2 VL with Q27E, I29V, S30T, R94S, F95S, W97L, Q101G
notes: phage campaign
B11: A13 (antibody, V domains shown)
VH: B2 VH
VL: B2 VL
notes: phage campaign; same VH/VL as E19
B12: E1 (antibody, V domains shown)
VH: EVQLVESGGGLVQPGESLKLSCESNEYEFPSHDMSWVRKTPEKRLELVAAINSDGGSTYYPDTMERRFIISRDNTKKTLYLQMSSLRSEDTALYYCARQLMGTGAMDYWGQGTSVTVSS
VL: DIQMTQSSSYLSVSLGGRVTITCKASDHINNWLAWYQQKPGNAPRLLISGATSLETGVPSRFSGSGSGKDYTLSITSLQTEDVATYYCQQYWSTPYTFGGGTKLEIK
notes: second hybridoma campaign
B13: E3 (antibody, V domains shown)
VH: QAYLQQSGAELVRSGASVKMSCKASGNTFTYYNLHWIRQTPGQGLEWIGYIFPGNGDAYYNQNFKGKATLTADTSSSTAYMQISSLTFEDSAVYFCARSPHYYGSGFDYWGQGTPLTVSS
VL: B12 VL with R18G, Y96W
notes: second hybridoma campaign
B14: E16 (antibody, V domains shown)
VH: QVQLKESGPGLVAPSQSLSITCTVSGFSLSGYGVNWVRHLPGKGLEWLGMIWGDGHTDYNSALKSRLSISKDNSKSQVFLKMNSLQTDDTARYYCARDPRFYYGSGPYWYFDVWGAGTTVTVSS
VL: DIVMTQSQKFMSTSVGDRVNITCKASQNVGTAVAWYQQKPGQSPKLLIYSASNRYTGVPDRFTGSGSGTDFTLTISNMQSEDLADYFCQQYSSYPLTFAVGTKLELK
notes: B-cell cloning campaign (mice)

T1 sequence (Q9UKJ1 20-197 limits assumed): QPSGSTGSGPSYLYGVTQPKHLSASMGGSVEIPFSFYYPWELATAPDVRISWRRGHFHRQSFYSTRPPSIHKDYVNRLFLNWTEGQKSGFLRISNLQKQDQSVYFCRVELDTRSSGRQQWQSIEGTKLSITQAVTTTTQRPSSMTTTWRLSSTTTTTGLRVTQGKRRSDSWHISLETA
Sequence of cynomolgus PILRA, ectopically expressed on 293 cells (cynomolgus monkey) (chain, as listed by the source): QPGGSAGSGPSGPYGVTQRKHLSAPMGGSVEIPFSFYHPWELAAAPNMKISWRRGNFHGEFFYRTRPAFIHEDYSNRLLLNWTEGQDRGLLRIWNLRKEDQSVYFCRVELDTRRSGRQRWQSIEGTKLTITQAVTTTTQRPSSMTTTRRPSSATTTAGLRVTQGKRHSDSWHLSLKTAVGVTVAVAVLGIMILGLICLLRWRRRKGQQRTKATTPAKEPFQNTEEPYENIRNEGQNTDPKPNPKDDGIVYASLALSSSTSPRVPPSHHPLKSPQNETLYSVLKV

One assay addresses T1, human PILRA, c-term His-Avi tag (human, UniProt Q9UKJ1 20-197, limits assumed).
T1 construct: not shown: C-terminal His-Avi tag
Put plainly: SPR (Biacore), antibody captured, PILRA as analyte. As to the method: Experiments were performed to determine the kinetics of anti-PILRA antibody binding to human […]. The assay is depicted in FIG. 6. A rabbit anti-PILRA was used as a positive control, and H1 LALAPS was used as a negative control. Human PILRA (human PILRA, c-term His-Avi tag, 0.68 mg/mi) was used as the antigen. The running buffer was HBSTE/0.5% BSA, pH 7.4, and the regeneration solution was 10 mM glycine-HCl (pH 2.1). In the assay, antibodies were captured at 10 μg/ml by immobilized anti-huFc or anti-msFc on a Biacore CM5 chip, and human PILRA flowed at 33, 100, and 300 nM. The surface was regenerated after each analyte, and all curves were double-referenced with buffer injections.
Turning to B1, binding was put at a Kd of 14.4 nM, the koff (usually the rate constant with which the complex falls apart) came to 0.0014 s⁻¹ and the kon (commonly a measure of how fast the partners come together) was 96000 M⁻¹ s⁻¹.

Consider B2, for which the Kd – broadly, the concentration at which binding is half-saturated – was 86.1 nM; the koff was found to be 0.009 s⁻¹; the kon is 100000 M⁻¹ s⁻¹.

B3 showed a Kd of 14.5 nM, a koff of 0.0016 s⁻¹ and a kon of 110000 M⁻¹ s⁻¹.

The next assay deals with cynomolgus PILRA, ectopically expressed on 293 cells (cynomolgus monkey). Put plainly: flow cytometry, 293 cells expressing target. As to the method:
(§1) Briefly, conditioned media containing antibodies were incubated with 293 cells for 30 min at 4° C., washed twice, and then detected with anti-mouse IgG Alexa 647.
In general terms: In flow cytometry, cells or beads pass a laser one at a time.
As to B4, the binding result was “no binding”.

With B5, the EC50 (commonly the midpoint of the concentration-response curve) turned out to be 0.6 µg/mL.

In the case of B6, the binding result is “no binding”.

Consider B7, for which the binding result is given as “no binding”.

In the case of B8, the binding result is reported as “no binding”.

B9 showed an EC50 of 92 µg/mL.

For the molecule B1, the EC50 amounted to 10.8 µg/mL.

Consider B10, for which the binding result is “no binding”.

B11 gave an EC50 of 0.8 µg/mL.

On to B12, for which the binding result was “no binding”.

B13 gave an EC50 of 0.15 µg/mL.

Consider B3, for which the binding result is recorded as “no binding”.

Another assay deals with T2, human PILRB, ectopically expressed on 293 cells (human, UniProt Q9UKJ0 20-227).
T2 construct: also called hB
T2 sequence (Q9UKJ0 20-227): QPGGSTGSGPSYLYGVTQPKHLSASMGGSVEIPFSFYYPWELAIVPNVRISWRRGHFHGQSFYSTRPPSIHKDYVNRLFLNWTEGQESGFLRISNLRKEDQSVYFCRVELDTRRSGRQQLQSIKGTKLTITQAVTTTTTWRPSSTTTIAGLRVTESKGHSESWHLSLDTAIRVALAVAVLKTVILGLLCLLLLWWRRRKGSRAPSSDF
Put plainly: flow cytometry, 293 cells expressing target. The procedure:
as §1
The molecule B4 showed an EC50 of 2.9 µg/mL.

Take B5: the binding result is listed as “no binding”.

B6: the binding result is recorded as “no binding”.

As to B7, the midpoint of the response, the EC50, lay at 5.9 µg/mL.

As to B8, the binding result is recorded as “no binding”.

As for B9, the EC50 amounted to 2.9 µg/mL.

B1 gave an EC50 of 1.1 µg/mL.

B10: the binding result is given as “no binding”.

The molecule B11 had an EC50 of 6.2 µg/mL.

As to B12, the binding result is on record as “no binding”.

For the molecule B13, the EC50 worked out at 0.78 µg/mL.

For the molecule B3, the binding result is “no binding”.

Turning to B14, the EC50 is 3.1 µg/mL.

The target in another assay is T3, human PILRA, G78 variant, ectopically expressed on 293 cells (human, UniProt Q9UKJ1 20-303).
T3 construct: the cells are labelled G78; also called hA G78 OE; hA
T3 sequence (Q9UKJ1 other isoform, or with tags, fused parts or gaps mutant): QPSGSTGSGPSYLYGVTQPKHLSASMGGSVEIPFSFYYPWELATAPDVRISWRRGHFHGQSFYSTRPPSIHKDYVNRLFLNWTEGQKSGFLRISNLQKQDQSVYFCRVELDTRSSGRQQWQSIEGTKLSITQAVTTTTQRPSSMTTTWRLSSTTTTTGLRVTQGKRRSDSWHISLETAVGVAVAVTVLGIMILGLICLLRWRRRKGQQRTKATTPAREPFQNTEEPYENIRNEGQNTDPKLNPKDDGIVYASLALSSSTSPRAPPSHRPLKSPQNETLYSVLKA
Put plainly: flow cytometry, 293 cells expressing target. The procedure:
as §1
In the case of B4, a half-maximal response (EC50) required 0.4 µg/mL.

B5 displayed an EC50 of 0.4 µg/mL.

As to B6, a half-maximal effect (EC50) was put at 1.2 µg/mL.

Turning to B7, the response was half-maximal at 0.2 µg/mL (EC50).

In turn, B9 had an EC50 of 0.4 µg/mL.

Molecule B1 gave an EC50 of 0.6 µg/mL.

As for B11, the EC50 is 0.8 µg/mL.

B12 showed an EC50 of 40.4 µg/mL.

As for B13, the EC50 amounted to 0.22 µg/mL.

Molecule B3 had an EC50 of 0.1 µg/mL.

In another assay the target is T4, murine PILRB, ectopically expressed on 293 cells (murine, UniProt Q2YFS2 29-224).
T4 construct: whole, on cells; also called mB
T4 sequence (Q2YFS2 29-224): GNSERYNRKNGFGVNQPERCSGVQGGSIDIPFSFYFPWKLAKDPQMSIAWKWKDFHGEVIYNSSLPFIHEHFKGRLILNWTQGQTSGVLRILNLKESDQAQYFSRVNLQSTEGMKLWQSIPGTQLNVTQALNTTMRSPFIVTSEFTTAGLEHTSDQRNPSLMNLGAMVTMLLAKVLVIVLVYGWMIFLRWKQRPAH
Put plainly: flow cytometry, 293 cells expressing target. The procedure:
as §1
B4: the binding result is listed as “no binding”.

B5: the binding result is listed as “no binding”.

Take B6: the binding result is listed as “no binding”.

For the molecule B7, the binding result is recorded as “no binding”.

With B8, the binding result was “no binding”.

On to B9, for which the binding result is “no binding”.

With B10, the binding result is “no binding”.

Consider B11, for which the binding result is “no binding”.

For the molecule B12, the binding result is given as “no binding”.

Take B13: the binding result was “no binding”.

Regarding B3, the binding result is listed as “no binding”.

Take B14: the binding result is “no binding”.

The target of another assay is T5, murine PILRA, ectopically expressed on 293 cells (murine, UniProt Q2YFS3 32-302).
T5 construct: also called mA
T5 sequence (Q2YFS3 32-302): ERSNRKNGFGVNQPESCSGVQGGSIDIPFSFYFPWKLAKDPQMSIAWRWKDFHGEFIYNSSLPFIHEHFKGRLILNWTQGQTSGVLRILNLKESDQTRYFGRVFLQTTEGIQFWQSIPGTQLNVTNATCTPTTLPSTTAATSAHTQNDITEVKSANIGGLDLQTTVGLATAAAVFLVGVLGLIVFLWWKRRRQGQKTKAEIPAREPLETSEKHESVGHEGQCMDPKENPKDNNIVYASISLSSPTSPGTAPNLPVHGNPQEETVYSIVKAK
Put plainly: flow cytometry, 293 cells expressing target. The procedure:
as §1
With B4, the binding result is reported as “no binding”.

Consider B5, for which the binding result is given as “no binding”.

For B6, the binding result was “no binding”.

As for B7, the binding result is given as “no binding”.

Turning to B8, the binding result is listed as “no binding”.

B9: the binding result is “no binding”.

For B10, the binding result was “no binding”.

Regarding B11, the binding result is given as “no binding”.

With B12, the binding result was “no binding”.

Take B13: the binding result is given as “no binding”.

Consider B3, for which the binding result was “no binding”.

For B14, the binding result is “no binding”.
